Experimental data taken from patent US20160311934A1, “HYDROXYALKYL STARCH DERIVATIVES AS REACTANTS FOR COUPLING TO THIOL GROUPS” (FRESENIUS KABI DEUTSCHLAND GMBH, priority 2013, published 2016).
Where a chain is given by its changes, count along the chain named. Numbers in names are those of the source. Values belong to the molecule of their own block, whether it stands above or below them.

Assays:
[1] = target: T1, Interleukin 1 receptor type I (Homo sapiens, UniProt P14778); experiment: SPR binding affinity on a BIAcore system; settings: immobilized receptor on CM3 chip, 1:1 binding stoichiometry
T1 construct: purchased R&D Systems
T1 sequence (P14778 18-569): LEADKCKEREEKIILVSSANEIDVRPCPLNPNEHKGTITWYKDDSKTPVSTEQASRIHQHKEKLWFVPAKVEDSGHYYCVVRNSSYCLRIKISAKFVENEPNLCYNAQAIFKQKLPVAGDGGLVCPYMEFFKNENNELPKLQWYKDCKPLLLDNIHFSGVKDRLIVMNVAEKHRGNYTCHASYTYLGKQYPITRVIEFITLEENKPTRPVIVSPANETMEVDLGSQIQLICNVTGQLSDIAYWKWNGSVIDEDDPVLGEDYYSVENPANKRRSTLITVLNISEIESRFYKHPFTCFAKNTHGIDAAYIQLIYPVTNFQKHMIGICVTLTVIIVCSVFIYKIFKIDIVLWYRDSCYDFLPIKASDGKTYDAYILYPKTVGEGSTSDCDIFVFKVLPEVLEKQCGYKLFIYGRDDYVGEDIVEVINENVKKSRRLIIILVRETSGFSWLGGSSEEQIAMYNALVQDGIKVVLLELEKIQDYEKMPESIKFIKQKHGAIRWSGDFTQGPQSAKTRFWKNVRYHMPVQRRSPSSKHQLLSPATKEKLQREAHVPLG
Method: Conjugates of L12-HES with IL1RA were tested for binding affinity to its natural binding partner using SPR on a BIAcore system. Interleukin 1 receptor type I (R&D Systems) was immobilized on the chip surface and the kinetic binding parameters were determined for the conjugate in comparison to the unmodified protein (chip: CM3, immobilization: 950 RU, flow rate 30 μl/min, association 180 s, dissociation 900 s, regeneration: 6 s with 5 mM glycine buffer, pH 2.0). The curves were analyzed by assuming a 1:1 binding stoichiometry.

peptidyl prolyl bonds = experiment: Prolyl isomerase activity assay; format: biochemical
Method: Prolylisomerases like SlyD catalyze the trans to cis isomerization of peptidyl prolyl bonds. The prolyl isomerase activities of SlyD and the L12-HES-SlyD conjugate were measured by a prolyl isomerase activity assay according to Zoldak et al. (2009, Biochemistry, 48, 10423-10436). The rate constant of the cis to trans isomerization of the prolyl bond was determined using Origin 8.1. […] The catalytic activity of unmodified SlyD is 5.6·10^6 M^−1s^−1 and the activity of the L12-HES-SlyD conjugate is 6.0·10^6 M^−1s^−1 (107% of the activity of unconjugated SlyD). The higher activity of the conjugate compared to unmodified SlyD is within the error of the assay.

[2] = Stability tests of HES-protein conjugates at different pH, 40° C., 20 days; format: physicochemical; settings: protein conjugate 1 mg/ml
Method: For stability tests at pH 4.0, 5.5, 7.0 and 8.0, the conjugates were diluted into final buffer conditions of 20 mM acetate (pH 4.0 and 5.5) or 10 mM phosphate (pH 7.0 and 8.0), 0.5 mM ETDA, 154 mM NaCl to a final concentration of 1 mg/ml. The conjugates were stored at 40° C. for 20 days and analyzed by RP-HPLC (example for Ubi is shown in FIG. 3), SEC (as described in example C1) or SDS-PAGE (as described in example C1).

B1: unmodified SlyD: SlyD D101C, sensitive to lysis protein D, a prolylisomerase, unconjugated (protein, UniProt P0A9K9 1-196, looked up, variant D101C)
FKBP-type peptidyl-prolyl …: MKVAKDLVVSLAYQVRTEDGVLVDESPVSAPLDYLHGHGSLISGLETALEGHEVGDKFDVAVGANDAYGQYDENLVQRVPKDVFMGVDELQVGMRFLAETCQGPVPVEITAVEDDHVVVDGNHMLAGQNLKFNVEVVAIREATEEELAHGHVHGAHDHHHDHDHDGCCGGHGHDHGHEHGGEGCCGGKGNGGCGCH
catalytic activity (prolyl isomerization) (peptidyl prolyl bonds): 5.6e+06 M⁻¹ s⁻¹

B2: L12 X12 SlyD (conjugate, UniProt P0A9K9 1-196, looked up)
FKBP-type peptidyl-prolyl …: B1 FKBP-type peptidyl-prolyl … with C101D
modifications: HES X12 via linker L12
catalytic activity (prolyl isomerization) (peptidyl prolyl bonds): 6e+06 M⁻¹ s⁻¹
% of the activity of unconjugated SlyD (peptidyl prolyl bonds; relative to unconjugated SlyD): 107%
conjugate degradation after 20 days (%) pH 7.0 ([2]; 10 mM phosphate pH 7.0, 40° C.): 3.4%
conjugate degradation after 20 days (%) pH 8.0 ([2]; 10 mM phosphate pH 8.0, 40° C.): 9.0%
conjugate degradation after 20 days (%) pH 5.5 ([2]; 20 mM acetate pH 5.5, 40° C.): 1.4%

Next, values leading:

association rate ka [1]: 263000 M⁻¹ s⁻¹
Molecule: IL1RA that is conjugated to HES via N-terminal coupling: IL1RA that is conjugated to HES via N-terminal coupling

association rate ka [1]: 588000 M⁻¹ s⁻¹
Molecule: unmodified IL1RA: interleukin-1 receptor antagonist (Kineret®), unconjugated
